Assay results as given in patent US20020102617A1 (published 2002).

T1: Cy3-conjugated IκBα (UniProt P25963 1-317, limits assumed, Cy3 label (monofunctional reactive dye; site not stated))
T1 construct: Used in solution at 0.1 ug/ml; also called Cy3-IκBα
T1 sequence (looked up): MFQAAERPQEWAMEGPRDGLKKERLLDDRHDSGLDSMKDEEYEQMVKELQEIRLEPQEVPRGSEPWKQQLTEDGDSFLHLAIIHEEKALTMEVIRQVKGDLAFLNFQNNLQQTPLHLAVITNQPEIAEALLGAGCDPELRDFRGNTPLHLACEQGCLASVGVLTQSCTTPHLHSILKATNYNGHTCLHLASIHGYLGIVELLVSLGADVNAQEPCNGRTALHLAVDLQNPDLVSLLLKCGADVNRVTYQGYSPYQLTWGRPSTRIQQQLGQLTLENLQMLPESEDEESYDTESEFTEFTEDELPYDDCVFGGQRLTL


Target: T1, Cy3-conjugated IκBα
Assay: protein microarray on aldehyde glass slide, fluorescent probe in solution (FIG. 1B)

binding result | Binder
no binding (tested: 0.1 µg/ml) | GST-FRB (other, domain: FRB domain of FRAP; Produced recombinantly in E. coli; The text calls the spotted protein both 'GST-FRB' and 'FRB'; also called FRB domain of FRAP; not shown: GST (glutathione S-transferase) fusion partner) ELIRVAILWHEMWHEGLEEASRLYFGERNVKGMFEVLEPLHAMMERGPQTLKETSFNQAYGRDLMEAQEWCRKYMKSGNVKDLTQAWDLYYHVFRRISKQ
no binding (tested: 0.1 µg/ml) | Protein G (other, UniProt P19909 303-497, looked up, Spotted on aldehyde (SMA) glass slides at 100 ug/ml; The commercial product may be a truncated recombinant form) TYKLILNGKTLKGETTTEAVDAATAEKVFKQYANDNGVDGEWTYDDATKTFTVTEKPEVIDASELTPAVTTYKLVINGKTLKGETTTEAVDAATAEKVFKQYANDNGVDGEWTYDDATKTFTVTEKPEVIDASELTPAVTTYKLVINGKTLKGETTTKAVDAETAEKAFKQYANDNGVDGVWTYDDATKTFTVTE
